The target of this assay is SERCA2a wild type (WT), expressed from a plasmid in HEK293 cells. The experiment in a line: cell-based or functional assay.

Turning to “flag-tagged SUMO1 (from UniProt P63165 2-97)”, the EC50 (Ca2+) of ATPase activity of WT SERCA2a with co-expression of SUMO1 turned out to be 0.11 µM.

For the origin of these results see patent US20170014494A1.
